This note sets out measurements from patent US20200182883A1.

What is called Kd is the equilibrium constant for the complex coming apart. By koff is commonly meant the rate constant with which the complex falls apart. A word on the kon: it is the rate constant with which the complex forms.

The target in this assay is HIV-1 IIIB p24 recombinant protein (HIV-1 IIIB). In words: SPR, mAb immobilized on a Protein A chip, 0-200 nM p24, room temperature.

B1: N60P55 (antibody, V domains shown)
VH: QVQLRESGPGLVKPSATLSLTCIVSGGSMSGYYWSWIRQPPGKGLEWIGHIDNNERTISSPSLNSRVTVSPDTSRNRFTLTLSSVTAADTATYYCARHVVYGGLDIWGQGTLVTVSS
VL: EIVLTQSPGTLSLSPGERASLSCRASDIVSINYFAWYQQKPGQAPRLLISGASVRATGIPDRFSGSGSGTDFTLTINRLEPEDVAVYYCQQHGSSPTFGQGTKVEIK
B1: the dissociation constant Kd was 0.0917 nM, the off-rate constant (koff) stood at 6.55e-05 s⁻¹ and the kon was 715000 M⁻¹ s⁻¹.
